The results in this text go back to patent US20260234276A1.

Assay [1] has as its target human CCR8 (human) (UniProt P51685). Nature of the assay: flow cytometry on lymphocytes from ascitic ovarian cancer, 0.1 µg mAb. Background: In flow cytometry, cells or beads pass a laser one at a time.
For assay [2] the target is unchanged. The assay can be described thus: flow cytometry on lymphocytes from ascitic ovarian cancer, 1 µg mAb.
For assay [3] the target is unchanged. The assay can be described thus: flow cytometry on lymphocytes from ascitic ovarian cancer, 0.5 µg mAb.
Assay [4] has the same target. The assay can be described thus: flow cytometry, hCCR8 transfected CHOK1 cells.

For the substance Isotype ctrl (antibody), the Positive cells came out at 2.94% in assay [1], 5.06% in assay [2] and 3.81% in assay [3].
Consider L263G8 (antibody), for which the Positive cells in assay [1] came out at 9.5%. In addition, in assay [4], the % positive cells came to 86.5% and the MFI fold change to isotype ctrl is 19.8 fold. In addition, the Positive cells in assay [2] was determined as 8.64%.
